Results published in article PMC3616737.

Assays:
[1] = biological target: T1, XMRV reverse transcriptase (full-length, monomeric) (Xenotropic murine leukaemia …, UniProt A1Z651 658-1328); test: SAXS
[2] = biological target: T1, XMRV reverse transcriptase …; test: SAXS; remark: listed apart in the source
[3] = biological target: T1, XMRV reverse transcriptase …; test: X-ray crystallography

B1: PPT-19 (DNA:RNA)
RNA: UAGUCUCCAGAAAAAGGGGGGAAUG
DNA: ATTCCCCCCTTTTTCTGGAGAC
B1: binds [1].

B2: PPT-18 (DNA:RNA)
RNA: AGUCUCCAGAAAAAGGGGGGAAUGA
DNA: CATTCCCCCCTTTTTCTGGAGA
B2: binds [2].

B3: hybrid 1 (DNA:RNA)
RNA: AACAGAGUGCGACACCUGAUUCCAU
DNA: TGGAATCAGGTGTCGCACTCTG
B3: binds [3].
